ECL signal, ECL signal/blank ratio (read-out not given) and ECL signal/blank ratio data for six substances are collected here from patent US20120316071A1.

Test [1] addresses rHuman ErbB2/Fc Chimera, CF (R&D Systems Cat#1129-ER) (human) (UniProt P04626). Nature of the test: Multispot ECL (MSD), antigen spotted on plate, Fab 0.00391 uM; blank spot 576.
Test [2] has as its target Recombinant Human DLL4 (R&D Systems Cat#1506-D4/CF) (human) (UniProt Q9NR61). Described as above.
The target in test [3] is rHuman P-Cadherin/Fc Chimera, CF (R&D Systems Cat#861-PC) (human) (UniProt P22223). The test is described as above.
Test [4] addresses rHuman ErbB2/Fc Chimera, CF (R&D Systems Cat#1129-ER) (human) (UniProt P04626). The test is described as follows: Multispot ECL (MSD), antigen spotted on plate, Fab […]; blank spot 6344.
Test [5] deals with Recombinant Human DLL4 (R&D Systems Cat#1506-D4/CF) (human) (UniProt Q9NR61). The description is as above.
Test [6] addresses rHuman P-Cadherin/Fc Chimera, CF (R&D Systems Cat#861-PC) (human) (UniProt P22223). Described as above.
For test [7], the target named is rHuman ErbB2/Fc Chimera, CF (R&D Systems Cat#1129-ER) (human) (UniProt P04626). Nature of the test: Multispot ECL (MSD), antigen spotted on plate, Fab 0.01563 uM; blank spot 906.
The target in test [8] is Recombinant Human DLL4 (R&D Systems Cat#1506-D4/CF) (human) (UniProt Q9NR61). The test is described as above.
The target of test [9] is rHuman P-Cadherin/Fc Chimera, CF (R&D Systems Cat#861-PC) (human) (UniProt P22223). The test is described as above.
The target of test [10] is rHuman ErbB2/Fc Chimera, CF (R&D Systems Cat#1129-ER) (human) (UniProt P04626). Nature of the test: Multispot ECL (MSD), antigen spotted on plate, Fab 0.0625 uM; blank spot 1738.
In test [11] the target is Recombinant Human DLL4 (R&D Systems Cat#1506-D4/CF) (human) (UniProt Q9NR61). The description is as above.
Test [12] has as its target rHuman P-Cadherin/Fc Chimera, CF (R&D Systems Cat#861-PC) (human) (UniProt P22223). The description is as above.
For test [13], the target named is rHuman HGF R/c-MET/Fc Chimera, CF (R&D Systems Cat#358-MT/CF) (human) (UniProt P08581). The test is described as follows: MSD multispot ECL, antigen spotted on plate; Fab 1.19 uM; blank spot 24999.
Test [14] concerns the target rHuman ErbB2/Fc Chimera, CF (R&D Systems Cat#1129-ER) (human) (UniProt P04626). The test is described as above.
The target of test [15] is rHuman IGF-1 sR, CF (R&D Systems Cat#391-GR) (human) (UniProt P08069). The description is as above.
Test [16] addresses rHuman HGF R/c-MET/Fc Chimera, CF (R&D Systems Cat#358-MT/CF) (human) (UniProt P08581). Nature of the test: MSD multispot ECL, antigen spotted on plate; Fab 0.01859 uM; blank spot 1776.
Test [17] concerns the target rHuman ErbB2/Fc Chimera, CF (R&D Systems Cat#1129-ER) (human) (UniProt P04626). Described as above.
The target of test [18] is rHuman IGF-1 sR, CF (R&D Systems Cat#391-GR) (human) (UniProt P08069). The description is as above.
The target of test [19] is rHuman HGF R/c-MET/Fc Chimera, CF (R&D Systems Cat#358-MT/CF) (human) (UniProt P08581). The test is described as follows: MSD multispot ECL, antigen spotted on plate; Fab 0.2975 uM; blank spot 5019.
The target in test [20] is rHuman ErbB2/Fc Chimera, CF (R&D Systems Cat#1129-ER) (human) (UniProt P04626). Described as above.
Test [21] has as its target rHuman IGF-1 sR, CF (R&D Systems Cat#391-GR) (human) (UniProt P08069). The description is as above.
Test [22] addresses rHuman HGF R/c-MET/Fc Chimera, CF (R&D Systems Cat#358-MT/CF) (human) (UniProt P08581). The test is described as follows: MSD multispot ECL, antigen spotted on plate; Fab 0.07438 uM; blank spot 2504.
Test [23] deals with rHuman ErbB2/Fc Chimera, CF (R&D Systems Cat#1129-ER) (human) (UniProt P04626). The description is as above.
Test [24] has as its target rHuman IGF-1 sR, CF (R&D Systems Cat#391-GR) (human) (UniProt P08069). The description is as above.
The target in test [25] is rHuman Notch-1/Fc Chimera, CF (R&D Systems Cat#3647-TK) (human) (UniProt P46531). The test is described as follows: ECL multispot (MSD) assay, antigen spotted on plate, 20 nM Fab.
The target of test [26] is Recombinant Human DLL4 (R&D Systems Cat#1506-D4/CF) (human) (UniProt Q9NR61). The test is described as above.
Test [27] addresses rHuman EGF R/Fc Chimera, CF (R&D Systems Cat#344-ER) (human) (UniProt P00533). Described as above.
For test [28], the target named is rHuman IGF-1 sR, CF (R&D Systems Cat#391-GR) (human) (UniProt P08069). The test is described as above.
The target in test [29] is rHuman CD44/Fc Chimera, CF (R&D Systems Cat#3660-CD) (human) (UniProt P16070). Described as above.
Test [30] deals with rHuman P-Cadherin/Fc Chimera, CF (R&D Systems Cat#861-PC) (human) (UniProt P22223). The test is described as above.
For test [31], the target named is rHuman HGF R/c-MET/Fc Chimera, CF (R&D Systems Cat#358-MT/CF) (human) (UniProt P08581). The test is described as follows: ECL Multispot (MSD), antigen spotted, Fab.
Test [32] addresses rHuman Notch-1/Fc Chimera, CF (R&D Systems Cat#3647-TK) (human) (UniProt P46531). The test is described as follows: ECL Multispot (MSD), antigen spotted, Fab.
Test [33] has as its target rHuman Erythropoietin R/Fc Chimera, CF (R&D Systems Cat#963-ER) (human) (UniProt P19235). Nature of the test: ECL Multispot (MSD), antigen spotted, Fab.
Test [34] concerns the target rHuman ErbB2/Fc Chimera, CF (R&D Systems Cat#1129-ER) (human) (UniProt P04626). Nature of the test: ECL Multispot (MSD), antigen spotted, Fab.
Test [35] concerns the target Recombinant Human DLL4 (R&D Systems Cat#1506-D4/CF) (human) (UniProt Q9NR61). The test is described as follows: ECL Multispot (MSD), antigen spotted, Fab.
Test [36] concerns the target rHuman IGF-1 sR, CF (R&D Systems Cat#391-GR) (human) (UniProt P08069). The test is described as follows: ECL Multispot (MSD), antigen spotted, Fab.
In test [37] the target is rHuman P-Cadherin/Fc Chimera, CF (R&D Systems Cat#861-PC) (human) (UniProt P22223). The test is described as follows: ECL Multispot (MSD), antigen spotted, Fab.
The target in test [38] is rHuman EGF R/Fc Chimera, CF (R&D Systems Cat#344-ER) (human) (UniProt P00533). The test is described as follows: ECL Multispot (MSD), antigen spotted, Fab.
Test [39] addresses rHuman CD44/Fc Chimera, CF (R&D Systems Cat#3660-CD) (human) (UniProt P16070). The test is described as follows: ECL Multispot (MSD), antigen spotted, Fab.
Test [40] addresses rHuman HGF R/c-MET/Fc Chimera, CF (R&D Systems Cat#358-MT/CF) (human) (UniProt P08581). Nature of the test: ECL multispot (MSD), antigen spotted, Fab in solution.
The target of test [41] is rHuman Notch-1/Fc Chimera, CF (R&D Systems Cat#3647-TK) (human) (UniProt P46531). The test is described as above.
The target of test [42] is rHuman Erythropoietin R/Fc Chimera, CF (R&D Systems Cat#963-ER) (human) (UniProt P19235). The description is as above.
Test [43] addresses rHuman ErbB2/Fc Chimera, CF (R&D Systems Cat#1129-ER) (human) (UniProt P04626). The test is described as above.
Test [44] deals with Recombinant Human DLL4 (R&D Systems Cat#1506-D4/CF) (human) (UniProt Q9NR61). Described as above.
The target of test [45] is rHuman EGF R/Fc Chimera, CF (R&D Systems Cat#344-ER) (human) (UniProt P00533). Described as above.
In test [46] the target is rHuman IGF-1 sR, CF (R&D Systems Cat#391-GR) (human) (UniProt P08069). The description is as above.
The target of test [47] is rHuman CD44/Fc Chimera, CF (R&D Systems Cat#3660-CD) (human) (UniProt P16070). The test is described as above.
Test [48] has as its target rHuman P-Cadherin/Fc Chimera, CF (R&D Systems Cat#861-PC) (human) (UniProt P22223). The test is described as above.

With “Fab VH1-46_IGHD2-15*01_IGHJ2*01 & L2_IGKJ1*01”, the ECL signal in test [1] came out at 1670; in [2] it was 1550; in test [3] it was 1960; in test [4], 29600; in [5] it was 27700; in test [6] it was 25500. The ECL signal in test [7] was found to be 4500; in [8], 4020; in test [9], 4940; in test [10], 9030; in test [11] it was 8050; in test [12], 7740.

For “Fab VH1-46_IGHD6-13*01_IGHJ4*01 & L2_IGKJ1*01”, the ECL signal in test [13] was 45500; in test [14], 38400; in [15], 35200; in test [16] it was 4570; in test [17], 5530; in test [18], 3780. Besides, the ECL signal in test [19] was determined as 17400; in [20], 15100; in [21], 17400; in [22], 6610; in test [23] it was 7550; in [24] it was 5800.

For “Fab VH3-23_IGHD2-21*01>3_IGHJ6*01 H100E/S108P V64A & V2-13_IGLJ2*01”, the ECL signal/blank ratio (read-out not given) in [25] was 3; in test [26], 2.7; in test [27], 9.1; in test [28] it was 1.2; in test [29], 2.2; in test [30], 30.6.

For the substance “Fab VH3-23_IGHD3-10*01>3_IGHJ6*01 Y112A & O12_IGKJ1*01”, the ECL signal/blank ratio in [31] came to 0.8; in [32] it was 1.1; in test [33] it was 1.6; in test [34] it was 1.3; in test [35] it was 1.2; in test [36] it was 1.4. For the same substance, in [37], the ECL signal/blank ratio came out at 1.1.

For the substance “Fab VH3-23_IGHD3-10*01>3_IGHJ6*01 Y112G & O12_IGKJ1*01”, the ECL signal/blank ratio was found to be 2.3 in test [31]; 3.3 in [32]; 1.6 in test [33]; 2.2 in test [35]; 2.1 in test [38]; 2.3 in [36]. In addition, the results for the ECL signal/blank ratio in test [39] and in [37] were 2.5 and 1.4, respectively.

As for “Fab VH3-23_IGHD3-10*01>3_IGHJ6*01 Y112V & O12_IGKJ1*01”, the ECL signal/blank ratio in test [40] worked out at 1.3; in [41], 1.4; in test [42], 4.3; in test [43], 1.6; in test [44] it was 2; in test [45] it was 1.2. For the same substance, the values for the ECL signal/blank ratio in [46], in test [47] and in test [48] were 0.8, 1 and 9.8, respectively.
